# Earlier results, collected in article PMC12731121.
# pKd, pKi: −log10 of the molar value.
# What was measured:
# MIF (Homo sapiens) = MIF (Homo sapiens) (UniProt P14174)
# [1] = biological target: D-dopachrome tautomerase (MIF-2) (Homo sapiens) (UniProt P30046)
# [2] = biological target: Cathepsin H (Homo sapiens) (UniProt P09668)
# [3] = biological target: Cathepsin L (Homo sapiens) (UniProt P07711)
# [4] = biological target: Cathepsin S (Homo sapiens) (UniProt P25774)
# Chain of Cathepsin S (Homo sapiens) (P25774 115-331): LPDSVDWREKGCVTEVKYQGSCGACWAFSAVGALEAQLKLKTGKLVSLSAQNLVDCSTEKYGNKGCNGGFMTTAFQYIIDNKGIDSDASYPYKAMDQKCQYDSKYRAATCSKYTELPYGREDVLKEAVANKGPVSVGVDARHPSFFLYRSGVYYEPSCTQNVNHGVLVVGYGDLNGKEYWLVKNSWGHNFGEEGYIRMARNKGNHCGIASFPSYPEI
# Chain of CD74 p41 thyropin domain (P04233 210-271): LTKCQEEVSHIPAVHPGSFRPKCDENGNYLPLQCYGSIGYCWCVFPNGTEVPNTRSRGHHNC
# Chain of CD74 (P04233 73-296): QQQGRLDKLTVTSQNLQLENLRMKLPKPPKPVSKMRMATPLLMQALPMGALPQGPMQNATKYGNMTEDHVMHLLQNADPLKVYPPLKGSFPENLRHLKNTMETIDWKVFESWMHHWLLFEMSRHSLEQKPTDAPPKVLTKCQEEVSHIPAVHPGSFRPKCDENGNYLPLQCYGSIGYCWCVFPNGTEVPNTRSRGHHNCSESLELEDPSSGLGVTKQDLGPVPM
# Chain of MIF (Homo sapiens) (P14174 2-115): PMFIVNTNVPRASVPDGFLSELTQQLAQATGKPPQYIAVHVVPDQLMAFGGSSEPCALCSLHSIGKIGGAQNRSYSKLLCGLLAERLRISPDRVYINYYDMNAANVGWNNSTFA
# Chain of D-dopachrome tautomerase (MIF-2) (Homo sapiens) (P30046 2-118): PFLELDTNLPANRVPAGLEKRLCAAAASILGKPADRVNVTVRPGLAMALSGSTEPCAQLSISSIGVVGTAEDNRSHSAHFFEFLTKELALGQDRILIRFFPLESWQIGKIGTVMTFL
# Chain of Cathepsin L (Homo sapiens) (P07711 292-333): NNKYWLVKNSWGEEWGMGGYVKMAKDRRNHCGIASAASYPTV
# Chain of Cathepsin H (Homo sapiens) (P09668 whole entry, looked up): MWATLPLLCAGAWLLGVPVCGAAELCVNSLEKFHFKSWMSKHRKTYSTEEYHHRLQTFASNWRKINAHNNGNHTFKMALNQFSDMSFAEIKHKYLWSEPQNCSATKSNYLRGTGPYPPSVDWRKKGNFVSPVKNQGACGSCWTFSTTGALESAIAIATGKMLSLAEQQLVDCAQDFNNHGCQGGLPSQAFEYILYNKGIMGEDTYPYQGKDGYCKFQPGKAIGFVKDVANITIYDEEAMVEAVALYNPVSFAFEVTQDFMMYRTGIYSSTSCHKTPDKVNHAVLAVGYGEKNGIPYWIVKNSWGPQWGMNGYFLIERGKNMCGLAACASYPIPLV
Substance,pKd (MIF (Homo sapiens)),pKd [1],pKi [2],pKi [3],pKi [4]
CD74 (from UniProt P04233),8.85,8.27,–,–,–
CD74 p41 thyropin domain (from UniProt P04233),–,–,8.28,11.77,6.68
